The record followed here is patent publication US20200109211A1 (ELSALYS BIOTECH, published 2020).

Test [1] concerns the target T1, human CD160 (CD160 GPI isoform) on cells (human, UniProt O95971 25-159, GPI anchor).
T1 construct: whole, on cells; Used for all cells said to carry human CD160: transfected CHO-S and E300 cells and cells that carry it naturally (YT2C2, blood NK, CD8+ T, T CD4, CLL cells); also called hCD160; CHO-S-hCD160 (clone 2G10)
T1 sequence (looked up): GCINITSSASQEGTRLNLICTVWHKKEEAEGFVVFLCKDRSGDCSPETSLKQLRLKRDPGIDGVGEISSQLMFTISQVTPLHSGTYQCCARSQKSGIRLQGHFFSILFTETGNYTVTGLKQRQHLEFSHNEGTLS
Briefly: phage FACS on CHO cells expressing hCD160. The text has this: (§1) Thus, phage clones were generated and also made it possible to produce periplasmic extracts of bacteria, containing unpurified soluble Fabs. The individual clones were selected for their binding capacity to the human CD160 protein, by ELISA, and to cells expressing human CD160 by FACS, this being i) either in the form of gene III-Fab fusion proteins expressed at the surface of the filamentous phage or ii) in the form of periplasmic extracts containing fragments of unpurified soluble Fabs. The individual clones (in the form of periplasmic extracts containing fragments of soluble Fabs) were also classified according to their kinetic dissociation constant (kdis).
(§2) From a practical point of view, the binding of the phage to human CD160 was detected using an anti-M13 HRP conjugated antibody. The binding of the phage to the cells expressing CD160 was detected using a mouse anti-M13-biotin antibody followed by Streptavidin-PE.

Test [2] concerns the target T2, recombinant human CD160 protein, soluble form, with a C-terminal tag of 6 histidine residues (R&D SYSTEMS) (human, UniProt O95971 27-159, limits assumed, biotinylated with EZ-Link sulfo-NHS-LC-biotin for BLI and ELISA; not biotinylated when immobilised on the CM5 chip for SPR).
T2 construct: domain: soluble form; Bought protein; also called hCD160-his; biotinylated CD160
T2 sequence: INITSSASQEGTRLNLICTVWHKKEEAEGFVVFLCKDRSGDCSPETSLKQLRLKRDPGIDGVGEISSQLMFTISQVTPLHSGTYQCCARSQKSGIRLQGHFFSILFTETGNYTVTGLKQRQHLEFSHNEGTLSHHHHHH
Briefly: ELISA, soluble Fab in periplasmic extract. The text has this: (§3) The binding of the clones selected (from the rounds of selection on CD160 protein and on CHO-CD160 cells) as soluble Fab was also looked at by ELISA and FACS using periplasmic extracts (P.E). The binding of the soluble Fabs to the human CD160 protein, using ELISA, was detected using an anti-c-myc antibody followed by an anti-mouse HRP conjugated antibody. The binding of the soluble Fabs to the CHO cells overexpressing human CD160 was detected using an anti-c-myc antibody followed by a goat anti-mouse APC conjugated antibody. The results of the ELISA and FACS experiments using Fabs expressed at the surface of the phages or in periplasmic extracts confirmed the binding capacity of each of the affinity-matured H7 clones to human CD160.
(In general: An ELISA detects its analyte on a solid surface through an enzyme-linked reagent.)

The target in test [3] is T2, recombinant human CD160 protein, …. The test is described as follows: phage ELISA, Fab on phage.
From the text: as §1, §2

For test [4] the target is unchanged. Briefly: SPR (Biacore 3000), hCD160 on CM5 chip, periplasmic extract with soluble Fab diluted 1:5. The procedure:
The binding capacity of the H7 variants was also tested by surface plasmon resonance (SPR). For this, a Biacore 3000 (GE Healthcare) was used. […] The integrity of the immobilized human CD160 was confirmed using the anti-huCD160 H7 IgG1 antibody. For the kinetic measurements, concentrations in cascade of human ECD160 with two-fold dilutions (0.15 μM-10 μM) were injected, twice, in PBS, with a Biacore P20 buffer at 25° C. and a flow rate of 30 μl/min.
The regeneration conditions were tested and 10 pi of 10 mM NaOH/1M NaCl were injected for the regeneration between the sample injections. To analyse the binding of the clones to human CD160, the periplasmic extracts containing the soluble Fabs were diluted to 1:5 in BIACORE P20 buffer (10 mM Hepes, 150 mM NaCl, 3 mM EDTA, 0.005% Tween-20) with a flow rate of 30 μl/min for 120 seconds for the association; the dissociation was measured for 300 seconds.
The maximum absolute response of the binding of each of these variants (expressed as measurement of arbitrary response units at time=120 seconds post-injection of the antibody) was evaluated on a surface coated with CD160 protein.

The target of test [5] is T1, human CD160 (CD160 GPI isoform) on cells. Briefly: FACS on CHO cells overexpressing hCD160, soluble Fab in periplasmic extract.
From the text: as §3

B1: FJ1516MP02A12 (H7 VH family 3) Fab clone (Fab, V domains shown)
VH: QVQLVQSGAEVKKPGASVKVSCKASGYTFTDYWMQWIRQAPGQGLEWIGAIYPGDDDAQFTQKFRGRATLTADKSTSTAYMELSSLRSEDTAVYYCARRGIAAVVGGFDYWGQGTTLTVSS
VL: EIVLTQSPATLSLSPGERATLSCRASQSISNHLHWYQQKPGQAPRLLIKYASQSISGIPARFSGSGSGTDFTLTISSLEPEDFAVYFCQQSNSWPLTFGGGTKVEIK
notes: Tested as Fab on phage and as soluble Fab in periplasmic extract
As for B1, the “Phage FACS (% binding)” value in test [1] is 92.1%. In addition, the “P.E ELISA O.D450 nm on biotinylated CD160” value (“P.E ELISA O.D450 nm” for short) in test [2] is 0.148 OD450. Further, in test [3], the “Phage ELISA O.D450 nm on biotinylated CD160” value (“Phage ELISA O.D450 nm” below) worked out at 6 OD450. In addition, in test [4], the “Biacore R.U ratio (variant/FaWT 2E07)” value was 1.5 fold; the “Biacore R.U ratio (variant/H7 WT)” value turned out to be 3.3 fold; the “Binding response, RU arbitrary unit (at t = 120 s post-mab injection)” value (“Binding response, RU arbitrary unit” for short) worked out at 20.1 RU. Besides, the “P.E FACS (% binding)” value in test [5] is 1.23%.

B2: FJ1516MP02G05 (H7 VH family 4) Fab clone (Fab, V domains shown)
VH: QVQLVQSGAEVKKPGASVKVSCKASGYTFADYWMQWIRQAPGQGLEWIGAIYPGDDDAQYTQKFRGRATLTADKSTSTAYMELSSLRSEDTAVYYCARRGIAAVVGGFDYWGQGTTLTVSS
VL: EIVLTQSPATLSLSPGERATLSCRASQSISNHLHWYQQKPGQAPRLLIKYASQSISGIPARFSGSGSGTDFTLTISSLEPEDFAVYFCQQSNSWPLTFGGGTKVEIK
notes: as for B1
With B2, the “Phage FACS (% binding)” value in test [1] was 86.9%. The “P.E ELISA O.D450 nm” value in test [2] stood at 0.141 OD450. Moreover, in test [3], the “Phage ELISA O.D450 nm” value was found to be 3.46 OD450. Further, in test [4], the “Biacore R.U ratio (variant/FaWT 2E07)” value came out at 1.2 fold; the “Biacore R.U ratio (variant/H7 WT)” value came to 2.6 fold; the “Binding response, RU arbitrary unit” value was 16 RU. Besides, in test [5], the “P.E FACS (% binding)” value came out at 1.06%.

B3: FJ1516MP02D09 (H7 VH family 2) Fab clone (Fab, V domains shown)
VH: QVQLVQSGAEVKKPGASVKVSCKASGYTFSESWMQWIRQAPGQGLEWIGAIYPGDDEARVTQKFRGRATLTADKSTSTAYMELSSLRSEDTAVYYCARRGIAAVVGGFDYWGQGTTLTVSS
VL: EIVLTQSPATLSLSPGERATLSCRASQSISNHLHWYQQKPGQAPRLLIKYASQSISGIPARFSGSGSGTDFTLTISSLEPEDFAVYFCQQSNSWPLTFGGGTKVEIK
notes: as for B1
As for B3, the “Phage FACS (% binding)” value in test [1] was determined as 76.4%. For the same molecule, the “P.E ELISA O.D450 nm” value in test [2] amounted to 0.174 OD450. For the same molecule, the “Phage ELISA O.D450 nm” value in test [3] was 3.63 OD450. In test [4], the “Biacore R.U ratio (variant/FaWT 2E07)” value came to 1.5 fold; the “Biacore R.U ratio (variant/H7 WT)” value is 3.2 fold; the “Binding response, RU arbitrary unit” value is 19.3 RU. Moreover, the “P.E FACS (% binding)” value in test [5] came to 1.08%.
